# Key:
# [1] = molecular target: host cellular β-tubulin (Vero cells) (African green monkey (endogenous in Vero)); assay: co-IP
# [2] = molecular target: host cellular β-tubulin (293T cells) (human (endogenous in 293T)) (UniProt P07437); assay: co-IP
Substance,ratio of precipitated TgRON4 to TgRON4 in total membrane fraction [1],ratio of precipitated TgRON4 to TgRON4 in total membrane fraction [2]
3xFLAG-tagged full-length TgRON4 lacking its putative signal sequence (TgRON4-Full) (from UniProt B6KJ32 27-984) (natural protein),1%,
3xFLAG-tagged C-terminal half of TgRON4 (TgRON4B) (domain or fragment),0.56%,0.82%

# Reference: PMC3824165
